Earlier results in article PMC10466379.

Legend:
Assay in all cases: not stated (values taken from the PKAD database; the article says PKAD values come mainly from NMR or IR titrations)
Conditions in all cases: not stated (the curated set excludes proteins with ligands, nucleic acids and structural metal ions)
[1] = biological target: His124 (UniProt position 206, NTHEQHLRKSE)
[2] = biological target: His121 (UniProt position 203, KPNNTHEQHLR)
[3] = biological target: His46 (UniProt position 128, TPETKHPKKGV)
[4] = biological target: His8 (UniProt position 90, STKKLHKEPAT)
[5] = biological target: His124 (UniProt position 206, NTHEQHLRKAE)
[6] = biological target: His124 (UniProt position 206, NTHEQHLRASE)
[7] = biological target: His104 (UniProt position 131, TFPDGHDYKFD)
[8] = biological target: His35 (UniProt position 62, AESNSHHAPLS)
[9] = biological target: His82 (UniProt position 109, DRPPKHSKDGN)
[10] = biological target: His92 (UniProt position 119, NGKTDHYLLEF)
[11] = biological target: Glu96 (UniProt position 123, DHYLLEFPTFP)
[12] = biological target: His150 (UniProt position 177, LKLCSH-----)
[13] = biological target: His72 (UniProt position 73, GINTAHKARQV)
[14] = biological target: Glu99 (UniProt position 181, ADGKMENEALV)
[15] = biological target: His8 (UniProt position 90, STKKLHAEPAT)
[16] = biological target: Glu36 (UniProt position 118, PMTFRELLVDT)
[17] = biological target: His60 (UniProt position 60, NETQTHQQVGN)
[18] = biological target: Glu66 (UniProt position 148, FTKKMEENAKK)
[19] = biological target: Glu39 (UniProt position 121, FRLLLEDTPET)
[20] = biological target: Glu74 (UniProt position 156, AKKIEEEFDKG)
[21] = biological target: His50 (UniProt position 77, GSSYPHWFTNG)
[22] = biological target: His137 (UniProt position 164, CGIIAHTKENQ)
[23] = biological target: His92 (UniProt position 119, NGKTDHYLLQF)
[24] = biological target: His36 (UniProt position 63, ESNSHHAPLSD)
[25] = biological target: Glu92 (UniProt position 174, RGLAYEYADGK)
[26] = biological target: Lys39 (UniProt position 39, EFPGGKIEMGE)
[27] = biological target: Glu103 (UniProt position 185, MVNEAEVRQGL)

Substance	pKa [1]	pKa [2]	pKa [3]	pKa [4]	other results
staphylococcal nuclease E101A (parent PDB 1STN) (Staphylococcus aureus (inferred from PDB 1STN; not stated in the article); E101A)	5.04	5.26	6.4	6.49	–
staphylococcal nuclease S128A (parent PDB 1STN) (Staphylococcus aureus (inferred from PDB 1STN; not stated in the article); S128A)	–	5.25	6.49	6.53	pKa [5]: 5.71
staphylococcal nuclease K127A (parent PDB 1STN) (Staphylococcus aureus (inferred from PDB 1STN; not stated in the article); K127A)	–	5.3	6.45	6.51	pKa [6]: 5.99
alpha-sarcin H137Q (parent PDB 1DE3) (Aspergillus giganteus (inferred from PDB 1DE3; not stated in the article); H137Q)	–	–	–	–	pKa [7]: 6.6; pKa [8]: 6.3; pKa [9]: 7.4; pKa [10]: 7.1; pKa [11]: 5.7; pKa [12]: 7.7
bovine heart phosphotyrosyl phosphatase (low molecular weight PTPase) (Bos taurus)	–	–	–	–	pKa [13]: 9.19
staphylococcal nuclease variant V99E (parent PDB 2LKV) (Staphylococcus aureus (inferred from PDB 2LKV; not stated in the article); V99E)	–	–	–	–	pKa [14]: 8.4
staphylococcal nuclease K9A (parent PDB 1STN) (Staphylococcus aureus (inferred from PDB 1STN; not stated in the article); K9A)	5.67	5.48	6.47	–	pKa [15]: 6.73
staphylococcal nuclease variant L36E (parent PDB 2LKV) (Staphylococcus aureus (inferred from PDB 2LKV; not stated in the article); L36E)	–	–	–	–	pKa [16]: 8.7
staphylococcal nuclease Y93A (parent PDB 1STN) (Staphylococcus aureus (inferred from PDB 1STN; not stated in the article); Y93A)	5.68	5.94	6.48	6.45	–
family 11 xylanase (PDB 1H4G) (Bacillus agaradhaerens (inferred from PDB 1H4G; not stated in the article))	–	–	–	–	pKa [17]: 4.01
staphylococcal nuclease Y91F (parent PDB 1STN) (Staphylococcus aureus (inferred from PDB 1STN; not stated in the article); Y91F)	5.65	6.04	6.39	6.36	–
staphylococcal nuclease E73A (parent PDB 1STN) (Staphylococcus aureus (inferred from PDB 1STN; not stated in the article); E73A)	5.63	5.24	6.51	6.47	–
staphylococcal nuclease variant V66E (parent PDB 2LKV) (Staphylococcus aureus (inferred from PDB 2LKV; not stated in the article); V66E)	–	–	–	–	pKa [18]: 8.5
staphylococcal nuclease variant V39E (parent PDB 2LKV) (Staphylococcus aureus (inferred from PDB 2LKV; not stated in the article); V39E)	–	–	–	–	pKa [19]: 8.2
staphylococcal nuclease D77N (parent PDB 1STN) (Staphylococcus aureus (inferred from PDB 1STN; not stated in the article); D77N)	5.81	5.77	6.53	6.29	–
staphylococcal nuclease Y91A (parent PDB 1STN) (Staphylococcus aureus (inferred from PDB 1STN; not stated in the article); Y91A)	5.82	5.32	6.52	6.42	–
staphylococcal nuclease variant V74E (parent PDB 2LKV) (Staphylococcus aureus (inferred from PDB 2LKV; not stated in the article); V74E)	–	–	–	–	pKa [20]: 7.8
alpha-sarcin E96Q (parent PDB 1DE3) (Aspergillus giganteus (inferred from PDB 1DE3; not stated in the article); E96Q)	–	–	–	–	pKa [21]: 6.4; pKa [22]: 5.9; pKa [23]: 7.2; pKa [8]: 6.3; pKa [12]: 7.9; pKa [24]: 7.3
staphylococcal nuclease Y93F (parent PDB 1STN) (Staphylococcus aureus (inferred from PDB 1STN; not stated in the article); Y93F)	5.52	–	6.42	6.46	–
staphylococcal nuclease variant I92E (parent PDB 2LKV) (Staphylococcus aureus (inferred from PDB 2LKV; not stated in the article); I92E)	–	–	–	–	pKa [25]: 9
alpha-sarcin H50Q/H137Q (parent PDB 1DE3) (Aspergillus giganteus (inferred from PDB 1DE3; not stated in the article); H50Q;H137Q)	–	–	–	–	pKa [7]: 7.3; pKa [8]: 6.3; pKa [9]: 7; pKa [10]: 7.4; pKa [11]: 5.4; pKa [12]: 7.6; pKa [24]: 7.3
staphylococcal nuclease D77A (parent PDB 1STN) (Staphylococcus aureus (inferred from PDB 1STN; not stated in the article); D77A)	5.77	5.89	6.43	6.44	–
MutT protein (Escherichia coli (inferred from PDB 1MUT; not stated in the article))	–	–	–	–	pKa [26]: 8.4
staphylococcal nuclease variant L103E (parent PDB 2LKV) (Staphylococcus aureus (inferred from PDB 2LKV; not stated in the article); L103E)	–	–	–	–	pKa [27]: 8.9
alpha-sarcin H50Q (parent PDB 1DE3) (Aspergillus giganteus (inferred from PDB 1DE3; not stated in the article); H50Q)	–	–	–	–	pKa [22]: 6.1; pKa [8]: 6.2; pKa [9]: 7.4; pKa [10]: 7.3; pKa [11]: 5; pKa [12]: 7.3
